B1: CPEB3 Ribozyme (parent)
chain: UAACAGGGGGCCACAGCAGAAGCGUUCACGUCGCAGCCCCUGUCAGAUUCUGGUGAAUCUGCGAAUUCUGCUGUAUAUCUC

Variants of: B1
Assay: self-cleavage, relative activity (ratio to wild type); higher = more cleavage; in vitro, sequencing
Outline: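 CPEB3 self-cleaving ribozyme mutant libraries were made by rounds of error-prone PCR, barcoded, and transcribed in vitro with T7 RNA polymerase for 5 hours at 37°C. Cleavage occurred during transcription and a 15 min DNase I step before EDTA stop. RNAs were reverse transcribed with template switching and Illumina-sequenced, with DNA sequencing mapping barcodes to variants. Relative activity is the variant's cleaved/total read fraction divided by wild type's (minimum 5 reads), averaged across three batches.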

Variant | self-cleavage
UAACAGGGGGCCACAGCAGAAGCGUUCACGUCGCAGCCCCUGCCCGAUUCUGGUGAAUCUGCGAAUUCUGCUGUAUAUCUC | 0.3
UAACAGGGGGCCACAGCAGAAGCGUUCACGUCGCAGCCCCUGCCGGAUUCUGGUGAAUCUGCGAAUUCUGCUGUAUAUCUC | 0.5
UAACAGGGGGCCACAGCAGAAGCGUUCACGUCGCAGCCCCUGCCUGAUUCUGGUGAAUCUGCGAAUUCUGCUGUAUAUCUC | 0.3
UAACAGGGGGCCACAGCAGAAGCGUUCACGUCGCAGCCCCUGCCAGAUUCUGGUGAAUCUGCGAAUUCUGUUGUAUAUCUC | 0.36
UAACAGGGGGCCACAGCAGAAGCGUUCACGUCGCAGCCCCUGCCAGAUUCUGGUGAAUCUGCGAAUUCUGAUGUAUAUCUC | 0.36
UAACAGGGGGCCACAGCAGAAGCGUUCACGUCGCAGCCCCUGCCAGAUUCUGGUGAAUCUGCGAAUUCUGGUGUAUAUCUC | 0.28
UAACAGGGGGCCACAGCAGAAGCGUUCACGUCGCAGCCCCUGACAGAUUCUGGUGAAACUGCGAAUUCUGCUGUAUAUCUC | 0.72
UAACAGGGGGCCACAGCAGAAGCGUUCACGUCGCAGCCCCUGACAGAUUCUGGUGAACCUGCGAAUUCUGCUGUAUAUCUC | 0.67
UAACAGGGGGCCACAGCAGAAGCGUUCACGUCGCAGCCCCUGACAGAUUCUGGUGAAGCUGCGAAUUCUGCUGUAUAUCUC | 0.31
UAACAGGGGGCCACAGCAGAAGCGUUCACGUCGCAGCCCCUGCCAGAUUCUGGUGAAUCUGCGAAUUCUGCUGUAUUUCUC | 0.78
UAACAGGGGGCCACAGCAGAAGCGUUCACGUCGCAGCCCCUGCCAGAUUCUGGUGAAUCUGCGAAUUCUGCUGUAUGUCUC | 0.58
UAACAGGGGGCCACAGCAGAAGCGUUCACGUCGCAGCCCCUGCCAGAUUCUGGUGAAUCUGCGAUUUCUGCUGUAUAUCUC | 0.19
UAACAGGGGGCCACAGCAGAAGCGUUCACGUCGCAGCCCCUGCCAGAUUCUGGUGAAUCUGCGAGUUCUGCUGUAUAUCUC | 0.31
UAACAGGGGGCCACAGCAGAAGCGUUCACGUCGCAGCCCCUGCCAGAUUCUGGUGAAUCUGCGAAUUCUGCUGUGUAUCUC | 0.39
UAACAGGGGGCCACAGCAGAAGCGUUCACGUCGCAGCCCCUGCCAGAUUCUGGUGAAUCUGCGAAUUCUGCUGUUUAUCUC | 0.62
UAACAGGGGGCCACAGCAGAAGCGUUCACGUCGCAGCCCCUGCCAGAUUCUGGUGAAUCUGCGAAUUCUGCUGUCUAUCUC | 0.84
UAACAGGGGGCCACAGCAGAAGCGUUCACGUCGCAGCCCCUGACAGAUUCUGGUGAAUCUGCGAAUCCUGCUGUAUAUCUC | 0.33

Variant | self-cleavage
UAACAGGGGGCCACAGCAGAAGCGUUCACGUCGCAGCCCCUGACAGAUUCUGGUGAAUCUGCGAAUACUGCUGUAUAUCUC | 0.83
UAACAGGGGGCCACAGCAGAAGCGUUCACGUCGCAGCCCCUGCCAGAUUCUGGUGAAUCUGCGAAUUCUGCUGUAUAUUUC | 0.91
UAACAGGGGGCCACAGCAGAAGCGUUCACGUCGCAGCCCCUGCCAGAUUCUGGUGAAUCUGCGAAUUCUGCUGUAUAUAUC | 0.8
UAACAGGGGGCCACAGCAGAAGCGUUCACGUCGCAGCCCCUGACAGAUUCUGGUGAAUCUGCGAAUUCUGCUGUAUAUCAC | 1.22
UAACAGGGGGCCACAGCAGAAGCGUUCACGUCGCAGCCCCUGACAGAUUCUGGUGAAUCUGCGAAUUCUGCUGUAUAUCCC | 1.15
UAACAGGGGGCCACAGCAGAAGCGUUCACGUCGCAGCCCCUGCCAGAUUCUGGUGAAUCUGCGAAUUCUGCUGUAUAUCUU | 0.7
UAACAGGGGGCCACAGCAGAAGCGUUCACGUCGCAGCCCCUGCCAGAUUCUGGUGAAUCUGCGAAUUCUGCUGUAUAUCUA | 0.92
UAACAGGGGGCCACAGCAGAAGCGUUCACGUCGCAGCCCCUGACAGAUUCUGGUGAAUCUGCGAAUUCCGCUGUAUAUCUC | 0.72
UAACAGGGGGCCACAGCAGAAGCGUUCACGUCGCAGCCCCUGACAGAUUCUGGUGAAUCUGCGAAUUCGGCUGUAUAUCUC | 0.82
UAACAGGGGGCCACAGCAGAAGCGUUCACGUCGCAGCCCCUGACAGAUUCUGGUGAAUCUGCGAAUUCAGCUGUAUAUCUC | 0.79
UAACAGGGGGCCACAGCAGAAGCGUUCACGUCGCAGCCCCUGACAGAUUCUGGUGAAUCUGCGAAUUCUGCUGUAUAGCUC | 1.29
UAACAGGGGGCCACAGCAGAAGCGUUCACGUCGCAGCCCCUGACAGAUUCUGGUGAAUCUGCGAAUUCUGCUGUAUAACUC | 1.29
UAACAGGGGGCCACAGCAGAAGCGUUCACGUCGCAGCCCCUGACAGAUUCUGGUGAAUCUGCGAAUUCUGCUGUAUACCUC | 1.13
UAACAGGGGGCCACAGCAGAAGCGUUCACGUCGCAGCCCCUGACAGAUUCUGGUGAAUCUGCGAAUUCUGCUGUAAAUCUC | 1.23
UAACAGGGGGCCACAGCAGAAGCGUUCACGUCGCAGCCCCUGACAGAUUCUGGUGAAUCUGCGAAUUCUGCUGUACAUCUC | 1.14
UAACAGGGGGCCACAGCAGAAGCGUUCACGUCGCAGCCCCUGACAGAUUCUGGUGAAUCCGCGAAUUCUGCUGUAUAUCUC | 0.54
UAACAGGGGGCCACAGCAGAAGCGUUCACGUCGCAGCCCCUGACAGAUUCUGGUGAAUCAGCGAAUUCUGCUGUAUAUCUC | 0.53

Source: the RNAGym collection of RNA variant scans (doi:10.1093/nar/gkz1192)
